From the DeepSol protein solubility set

assay: soluble on expression in E. coli; label from the status in PepcDB or PDB records

Sequence | soluble on expression in E. coli
IQVFLSARPPAPEVSKIYDNLILQYSPSKSLQMILRRALGDFENMLADGSFRAAPKSYPIPHTAFEKSIIVQTSRMFPVSLIEAARNHFDPLGLETARAFGHKLATAALACFFAREKATNS | soluble
MNASSAPQQQQQQQQPQQGQAPQQQQQGPPQHQYQQQRPFHGRVQNHMRGSGPFGNSNGYGRYTAPRGDQQHHDSTPLSSTNLYIRGLMPNTNDDLLREMCSKYGNIASTKAIMDKATNNCKGYGFVDFESPQAAAAAVDGLNTEGVQAQMAKLQQQEQDPTNLYIANLPLDFTEQMLETELNKFGMVISTRILRTPDNQSRGVGFARMDSKEKCEVIISALNGGRFDTMSKEGPALLIKQADTGRKSKHSMNNPEMLQRMQYPQVYQSYYGYHPAAVYQQHYDVNSLASQMGGMHVGGGNPQANGGGDMYGAHMYGQNAGGQGGQGVGQGGQGGNQQFYNPNNGRNKKYFQPMNPQ | not soluble
MGSDKIHHHHHHMDKLDNYIVTILEKSITPRKSPFLHTILAGRRTGQAVQDAHLFQMQHLFGLVPNLKLNYLETRLKELMRQGIITVTENGYTVKQKPNFSFEMSFPSFHGFAFQQQVFAFFAHLRLAVQVVSNKHHAEKYYLPVIRDKKVQQFIKIWLQNQQQEDLADRLYIELIKWFNSLAVSRPEFLVERFSGGKLMGYTTEQIATKYQVEKWDVYFEVLHELHRLIAAIKESEEEWPLLASLIPNELMSLTSSAIKTYTLWAKGMDLEMIERIRNLKTSTIQDHFVEIRATLKEAQVPYLPEEELIQSINSRNWHLLRDIKAAFPDLDYYQIRLAVVSKEDEQ | not soluble
MTKKIVLAGGTGFIGQYLQQRFEENGDEVVIISRRAPHVSWDDSEAVREALEGADMLVNLAGKSVNCRYNEQNKKAILQSRIDTTNILGEAVLACERPPKLWLNSSTATIYRHAEDRAMTEANGELGSGFSENVAKAWEEEFFSFQLPNTRQAALRISIVLGGDGGALTPYRYLTKFGLGGKQGSGKQMVSWIHVEDVFRVIRFIEEQEALEGVINCTSPQPVSNKVLTTAIRRAMNVKVGLPATAWMLEIGTFLLRTESELILKSRWVLPERLLQAGFTFQYETIDDALSEILVQSKSASHLLEHHHHHH | not soluble
AHHHHHHGSSKDRMVELLQEHFELNLYEARAYVALVAFGVLTPAELASVSEVPAPRTYDVLRSLEKKGFAMTQPGKTNKYRPVHPANVLEKFIQDWQERVKEELEAKKKAKEELLELMAPLIETEVPKYGVERVWVVRGIKNSTLKTKEMLEEAQNEILLADDGFIAVNLEDDIIKAVDRGVKTKILLTKNLLPRLKASKIIDYAKEGKLELRALDKFDLPMLICDEEVFFALEDLAARYFNYETQVWIKDHRVVALFKEKFNEYWEKAEKV | soluble
MTREAFAPYQCLATDLLKYLPSDQNDGSHDLAHIHRVWVNAHRIQRVEGGDLEILLAATVLHDCVAVEKHSPLRGQASTLSANKAASVLAEMGWPSGRVEQVVHAIKTHSYSAGFEPLTREACILQDSDRLDAIGAVGIARCFYVAGRMGSALYDFENPFAQQRAYQDGAYAIEHFQTKLLKLASGFKTQEGARLAAERHTRLETFLTQFMDEITGAGLEHHHHHH | soluble
MAHHHHHHMGTLEAQTQGPGSMLNKRKFYINGLWDDPSTPHDLYVIDPSTEEACAVISLGSTRDADKAINAAKKAFQTWKTTSPHERLGFVEKILEIYEKRSSDMAKTISMEMGAPIDMALNAQTATGSSHIRNFIKAYKEFSFQEALIEGNEQAILHYDAIGVVGLITPWNWPMNQVTLKVIPALLAGCTMVLKPSEIAPLSAMLFAEILDEAALPSGVFNLINGDGANVGSYLSAHPDLEMISFTGSTRAGKDISKNASNTLKRVCLELGGKGANIIFADADIDALQRGVRHCFYNSGQSCNAPTRMLVEQAIYDKAIKTAKDIAEKTQVGPGHQTGNHIGPVVSKEQYDKIQDLIQSGIDEGATLVTGGTGLPMGMERGYYVRPTVFADVKPHMRIFREEIFGPVLSLLPFNTEDEAVTLANDTEYGLTNYIQSQDRSKCRRIAAQVRSGMVEVNGHELPGGSYFGGVKFSGRAREGGLWGIKEFLDTKAISYW | soluble
MGSDKIHHHHHHMKKHAYLIIAHDNWKILEKLLILLDDKRNDIYLHIDRKSNLINFSNNVHNANLFVFHEIDVRWGDISLIQVEFFLFKTAYCKGNYSYYHLISGSDLPLKTQDEIHAFFDAHYPTEFIGFSLEMTCDDRVNRAYIFPKYQRIKNRYGNKLLGSLRSFCAFLQKILNYNHYKLKDKLMIGPEWVSITEQSVSLILSKEKVIMKQYRFASCGDEVYKQTIIGNSFLFNYVYDKNDDYKGCMRYIDWTRGNPYIFRSADFEQLMSSDRMFARKFDEKVDFDIVERIFEVLNGQTSDSKMKYYF | not soluble
MTPFMTEDFLLDTEFARRLYHDYAKDQPIFDYHCHLPPQQIAEDYRFKNLYDIWLKGDHYKWRAMRTNGVAERLCTGDASDREKFDAWAATVPHTIGNPLYHWTHLELRRPFGITGKLLSPSTADEIWNECNELLAQDNFSARGIMQQMNVKMVGTTDDPIDSLEHHAEIAKDGSFTIKVLPSWRPDKAFNIEQATFNDYMAKLGEVSDTDIRRFADLQTALTKRLDHFAAHGCKVSDHALDVVMFAEANEAELDSILARRLAGETLSEHEVAQFKTAVLVFLGAEYARRGWVQQYHIGALRNNNLRQFKLLGPDVGFDSINDRPMAEELSKLLSKQNEENLLPKTILYCLNPRDNEVLGTMIGNFQGEGMPGKMQFGSGWWFNDQKDGMERQMTQLAQLGLLSRFVGMLTDSRSFLSYTRHEYFRRILCQMIGRWVEAGEAPADINLLGEMVKNICFNNARDYFAIELN | soluble
MSLSKKIVIVGGVAGGASTAARLRRLDENNQIIMFERGPHVSFSNCCLPYYLSGKVENHEDLVLMTPEKFYSQYRIDARVYTEVVSINRKAKEVTVRNVVSGQEYTESYDKLVLSPGAKAIVPPIKGIEDVNVFTVRNVVDIAKLDSFIKDNNSKNISVIGGGFIGVEVAENLHEAGYNVTLIEAMDQIMKPFDYDMVQVLHKEMYDKGVNLIVGDKVSSFESGKVVLESGKKINSDAVVMAIGVAPETDLAREAGLEIGQTGAIKVNQNYLTNDKDIYAVGDAVEVYNSLTNSISRLPLAGPAQKQARAVADHIHGRPSRNSGYIGSSCVQIFDYNGASTGLTEGQIKAMNLSLNYDVVRVIPQDKVGLMPGSEPLHFKLIFEVPTGRILGAQAIGKGNADKRVDIIATLIKMGGTVEDLKDLELCYAPPFGTAKDVVNHAALVASNLLEGTFKQVYVHEVRDLVESGACIIDVREVSEYEAGHIKGAKNLPLSEIRDRLDEIPTDRPVYLHCRSAQRSYNACLALQHLGFDNIYNVSGGFMGISFYEYYNDKVQDREPIVTEYNFNEGHHHHHH | soluble
MGSDKIHHHHHHMDFDTGRRIDRRAIPADAVEGTWTASDGHPIRRIDWPGHSEPDAPTAPRGSLLFLPGRGDFYEKYLESLDYWHCEGWRVTALDWRGQAGSGRLSSDPMTGHVPDFGLWLDDLGAFWTDWVRDTPGPHVVVGHSMGGHLVLRALAERRIDPAAVVLSAPMLGFLTPGPNRVLHRVAEFMCRIGDPERSAWKSSEKPGATTAARNTLLTHDEARYGDETHWKTVRPELAMGPGSWRWVERAYASMLVLDRPGLLEAVDVPVLLLAARHDGLVSWRAIERAARRLPRAQLMTWGREARHELLREADPVRDKVMHAIDDFLDRLAPPTGEDAPA | not soluble
MHPTYSAVQARLLEANRLSPELLAKSLCIIGAHHVDYADIYCQRTAYESWHLEEGIVKSGSFQINQGVGVRAVSGDKTAFAYADSLCIDSINRSARAVRAIGAAGGKVSAKMPSETRGKPVCSASDPIAGLDSAAKVALLNKVEAIAKAADPRIVQVMAGLTCEYDMVYLARLDGKHAADIRPMVRLNVTVIAKQGERREQGSAGGGGRYDLAYFDENLVHRFVDAAVKQALTNLESRPAPAGEMTVVLGNGWPGVLLHEAVGHGLEGDFNRKGTSVFSGRIGERVAAKGVTVVDQGDIAGRRGSLNIDDEGNETRRTVLIEDGILVGYMQDETNARLTGTQSTGNGRRESYASAPMPRMTNTFMENGSYEPEEIIASIDKGIYAVNFGGGQVDITSGKFVFSASEAWWVEGGRLQYPVKGATIIGNGPEVLKHVSMIGNDTALDSGVGVCGKEGQSVPVGVGQPTLRIDAGLTVGGSAI | not soluble
MKFKKLLSRIIIATMITFTGTLSYQAIEQTHISHAAHNYYGKKQCTWWAFKRRAQLGKPVSNRWGNAKNWYSNARRSGYATGHKPRKYAVMQSTRGYYGHVAVVEKVYKNGKIKISEYNYNVPLGYGTRIISKSSARNYNYIYLEHHHHHH | not soluble
MSLTDRIFINAVDAGGQPIHLVVRDGRFIAIGADCAAAPGAETIDLDGRVVLPGFVDGHIHLDKSFVGDRWVPHEPVGTLRERLAVEKRQLAAAPPIVERANALIAQAAAFGTVAMRSHVDVDATTGLSNLQAVMAAREQWRGIVDIELVAFPQAGVVTCPGTAEILDVAVREGADVVGGIDPTTLDGDADGQLDIVFGIAEKRGAKIDIHLHEPGETGIAQLLRIAARTRAAGLGGRVNVSHAYALGQVSDGDVQRTAAALAEAGVSILTNAPGDCAFPPVQALRDAGVHVFAGNDNIRDAWWPYGNGDMLQRAMMVGYRSGFYTDEALGIALDMATHAGARVIGKDNYGIAVGRDATFVAVRAPNAAAAVAGVPAERWVFRRGESDTGAPFAPALRFTREGHHHHHH | soluble
MGSDKIHHHHHHMRFMLYEFLKNNYKEAEPIFFSDIVIEGITKSAVNQQLKKLCDEGKLQKYENGIYYLPKKSRLKTNVGVNADMVARYKYVSRGGKVDGFYSGNTFANQLGISTQVPNKVEIVSNNMAAKIREIPIGKRTFIVRRPVVPVNEENVYVLQLLDLLKNLDMYLDESYDVAHDKVSQFVQIHGITKNDVDSYIREFPIAIFRYYYELRLDDVFA | not soluble
ESSVNPVVLDFEDGTVMSFGEAWGDSLKCIKKVSVSQDLQRPGNKYALRLDVEFNPNNGWDQGDLGTWIGGVVEGQFDFTGYKSVEFEMFIPYDEFSKSQGGFAYKVVINDGWKELGSEFNITANAGKKVKINGKDYTVIHKAFAIPEDFRTKKRAQLVFQFAGQNSNYKGPIYLDNVRIRPEDA | soluble
MAHHHHHHMRILHKLGKNVFQTARRSFSLVTKQAHDFTAQGLNKNNEIINVQLSSYIGKKYCCLLFYPLNYTFVCPTEIIEFNKHVKSFEEKNVELLGISVDSVYSHLAWKNMPIEKGGIGNVNFTLVSDLNKEISKMYNVLYENSFALRGLFIIDLQGKVRHQTVNDLPLGRSVDEVLRTIDSIIHVDKTGDVCPINWKKGAKSFQPTNDSLLNYLNTEVKKE | soluble
KILLKTSENGLDLEKPYYQAVIRRWQNKITDADTRRETVSAVSPKIILNDAPKWAVMLETEWQDGEWFEGRLAQEWLDKGVATNREQVAALETELKQKPAQLLIGVRAQTVPDRGVLRQIVRLSEAAQGGAVVQLLAEQGLSDDLSEKLEHWRNALAECGAAWLEPDRAAQEGRLKDQ | not soluble
AHHHHHHGSSLGGSADDTYLHEIIKKAYEAGIVIVAAAGNEGASSPSYPAAYPEVIAVGATDINDQVPYWSNRQPEVSAPGVDILSTYPDDTYETLSGTSMATPHVSGVVALIQAAYYLKYGKVLPVGTFDDMSTNTVRGILHLAVDDLGDPGWDIYYGYGIIRADKAIQLALF | not soluble
MKRSEKKSMSSALKNGIMERTQPEKVVQMQGTADLSTSKLGTKKYWDELYALELENFRRNPQDTGDCWFSDSDAEQKMIDFLVDNIGAYRISENASVVDLGTGNGHMLFELHQTEFQGKLVGIDYSEESVKLASNIAEATGVDNFISFQQADIFSGDWKPGKYDIVLDKGTLDAISLSGMKINGKLDVVDVYAGVVERILKKDGIFLITSCNFTQDELVKIIETDNLKMWKTIKYPVFQFGGVQGATICSVAFVKQN | soluble
MAKRPTETERCIESLIAIFQKHAGRDGNNTKISKTEFLIFMNTELAAFTQNQKDPGVLDRMMKKLDLDSDGQLDFQEFLNLIGGLAIACHDSFIKSTQK | soluble
